From paper PMC12561415, “ACSS2/AATF Drives Soluble FasL‐Mediated CD8^+ T Cell Apoptosis in Pancreatic Neuroendocrine Tumors” (Advanced Science, 2025)

Molecular target: T1, Recombinant human ACSS2 (human, UniProt Q9NR19 1-701)
T1 construct: Recombinant human ACSS2, immobilised on a CM5 chip for SPR
Test: SPR; Biacore 8K, 25 °C, HBS-EP running buffer; ACSS2 amine-coupled to a CM5 chip (5 µg/mL in 10 mM sodium acetate pH 5.5); AATF injected at 12.5-400 nM; multi-cycle, 120 s association, 120 s dissociation, 30 µL/min
Settings: both partners purified

T1 sequence (Q9NR19 whole entry): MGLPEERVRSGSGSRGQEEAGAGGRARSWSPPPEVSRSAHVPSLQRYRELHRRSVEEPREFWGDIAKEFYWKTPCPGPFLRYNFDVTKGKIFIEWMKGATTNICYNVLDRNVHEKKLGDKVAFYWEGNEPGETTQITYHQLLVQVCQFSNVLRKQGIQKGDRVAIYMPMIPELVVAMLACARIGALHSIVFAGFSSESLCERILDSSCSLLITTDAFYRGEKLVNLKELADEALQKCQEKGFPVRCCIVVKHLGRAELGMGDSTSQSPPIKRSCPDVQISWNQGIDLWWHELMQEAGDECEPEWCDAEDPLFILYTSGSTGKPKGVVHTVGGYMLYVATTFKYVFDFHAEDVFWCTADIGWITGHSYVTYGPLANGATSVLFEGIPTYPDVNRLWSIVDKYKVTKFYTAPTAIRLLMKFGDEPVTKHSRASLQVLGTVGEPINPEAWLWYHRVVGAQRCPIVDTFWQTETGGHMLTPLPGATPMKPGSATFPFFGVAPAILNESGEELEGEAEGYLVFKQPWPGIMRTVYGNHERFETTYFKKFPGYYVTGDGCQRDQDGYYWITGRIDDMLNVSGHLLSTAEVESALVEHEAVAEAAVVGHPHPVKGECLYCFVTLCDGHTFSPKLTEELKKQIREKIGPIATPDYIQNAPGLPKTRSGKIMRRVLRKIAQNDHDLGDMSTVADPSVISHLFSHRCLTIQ

B1: Recombinant human AATF (natural protein, UniProt Q9NY61 1-560, looked up)
chain: MAGPQPLALQLEQLLNPRPSEADPEADPEEATAARVIDRFDEGEDGEGDFLVVGSIRKLASASLLDTDKRYCGKTTSRKAWNEDHWEQTLPGSSDEEISDEEGSGDEDSEGLGLEEYDEDDLGAAEEQECGDHRESKKSRSHSAKTPGFSVQSISDFEKFTKGMDDLGSSEEEEDEESGMEEGDDAEDSQGESEEDRAGDRNSEDDGVVMTFSSVKVSEEVEKGRAVKNQIALWDQLLEGRIKLQKALLTTNQLPQPDVFPLFKDKGGPEFSSALKNSHKALKALLRSLVGLQEELLFQYPDTRYLVDGTKPNAGSEEISSEDDELVEEKKQQRRRVPAKRKLEMEDYPSFMAKRFADFTVYRNRTLQKWHDKTKLASGKLGKGFGAFERSILTQIDHILMDKERLLRRTQTKRSVYRVLGKPEPAAQPVPESLPGEPEILPQAPANAHLKDLDEEIFDDDDFYHQLLRELIERKTSSLDPNDQVAMGRQWLAIQKLRSKIHKKVDRKASKGRKLRFHVLSKLLSFMAPIDHTTMNDDARTELYRSLFGQLHPPDEGHGD
notes: Recombinant human AATF, the analyte in SPR; also called Che-1
Kd: 33.3 ± 1.7 nM
